Assay results published in US20170305994A1 (Novo Nordisk, published 2017).
Changes are numbered by the printed parent chain. In names and notes the source's numbering stands. Like-named read-outs stand apart in the source and are kept apart here. Each block holds one binder with its values, some of them ahead of it.

Assays:
DR3 (ECD)-Fc = biological target: T1, DR3 (ECD)-Fc (human); experiment: HX-MS with hDR3 ECD-Fc
T1 construct: ECD of DR3, a linker with a TEV cleavage site and the Fc part of human IgG4; dimeric fraction used; also called DR3-Fc; hDR3-Fc
Experimental: The Leap robot was equipped with two temperature controlled stacks maintained at 20° C. for buffer storage and HX reactions and maintained at 2° C. for storage of protein and quench solution, respectively. The Waters HDX system furthermore contained a temperature controlled chamber holding the pre- and analytical columns, and the LC tubing and switching valves at 1° C. A separately temperature controlled chamber holds the pepsin column at 25° C. […] The resulting peptides were trapped and desalted on a VanGuard pre-column BEH C18 1.7 μm (2.1×5 mm (Waters Inc.)). Subsequently, the valves were switched to place the pre-column inline with the analytical column, UPLC-BEH C18 1.7 μm (1×100 mm (Waters Inc.)), and the peptides separated using a 9 min gradient of 10-40% B delivered at 200 μl/min from the nanoAQUITY UPLC system (Waters Inc.). The mobile phases consisted of A: 0.1% formic acid and B: 0.1% formic acid in CH₃CN. The ESI MS data, and the separate elevated energy (MS^E) experiments were acquired in positive ion mode using a Synapt G2 mass spectrometer (Waters Inc.).
All HX reactions were carried out at 20° C. and contained […] hDR3 in the absence or presence of […] Fab thus giving a 5 fold molar excess of Fab. […]

[1] = biological target: T2, human DR3 (full length, on cells) (human, UniProt Q93038 25-417); experiment: cell-based or functional assay
T2 sequence: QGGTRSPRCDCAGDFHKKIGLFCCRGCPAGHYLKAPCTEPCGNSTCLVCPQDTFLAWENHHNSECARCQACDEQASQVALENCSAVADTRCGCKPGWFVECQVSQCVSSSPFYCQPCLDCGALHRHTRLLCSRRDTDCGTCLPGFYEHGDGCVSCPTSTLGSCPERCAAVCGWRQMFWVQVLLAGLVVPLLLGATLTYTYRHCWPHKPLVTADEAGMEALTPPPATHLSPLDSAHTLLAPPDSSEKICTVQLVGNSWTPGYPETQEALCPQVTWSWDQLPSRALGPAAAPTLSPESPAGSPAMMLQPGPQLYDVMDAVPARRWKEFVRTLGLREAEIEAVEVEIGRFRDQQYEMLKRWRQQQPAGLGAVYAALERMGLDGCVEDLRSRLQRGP

[2] = biological target: T2, human DR3 (full length, on cells); experiment: flow cytometry on IL-12/IL-18/TL1A activated CD4+ T cells, 1 µg/ml
Experimental: (§1) Buffy Coats were obtained from normal healthy volunteers from Copenhagen University Hospital. CD4+ T cells were isolated through magnetic bead separation. Cells were activated with 2 ng/ml IL-12, 50 ng/ml IL-18 and 100 ng/ml TL1A (Flag-HIS-TEV-TL1A-produced at Novo Nordisk A/S) and cultured for 5 days. On day 5 cells were stained with 10, 5, 1, 0.5, 0.1 or 0.0001 μg/ml of the anti-DR3 mAb clones 0072, 0073, or 0077, or with Fab fragment clones 0087, 0088 and 0091. A secondary PE conjugated goat-anti-mouse (H+L) was used for detection.
The greater observed MFI values of IgG treated compared with Fab treated cells was expected since the secondary (detecting) antibody (anti-IgG heavy and light chain) bound to both Fab and Fc parts of the full-length IgG antibody clones, but only to Fab parts of Fab clones (Table 9).

[3] = biological target: T2, human DR3 (full length, on cells); experiment: as above; remark: listed apart in the source
Experimental: as §1
as §1, with “Material and Methods: Buffy” for “Buffy”, “Copenhagen” for “Copenhagen University”, “0088 or” for “0088 and”, “detection. Samples were in duplicate. Staining intensity was evaluated by FACS.” for “detection.”

[4] = biological target: T2, human DR3 (full length, on cells); experiment: cell-based or functional assay; remark: listed apart in the source
[5] = biological target: T2, human DR3 (full length, on cells); experiment: flow cytometry on CD3/CD28-stimulated human CD4+ T cells
Experimental: Human CD4-positive T cells were purified from Buffy coats using CD4 Rosettesep (Stem cell technologies) and Histopaque (Sigma). T cells were stimulated with CD3/CD28 Dynabeads (Invitrogen) at a 1:1 ratio for 4 days in T75 flask at 2 mio CD4 T cells/ml in RPMI supplemented with 10% fcs. Beads were removed using a magnet, and cells were washed twice before titrating in antibodies on 500.000 cells/staining. Binding saturation was measured after incubation with goat-anti-mouse phycoerythrin (Jackson ImmunoResearch) and cells were subsequently analysed by flow cytometry on a BD LSRII. All antibodies reached saturation at 3 μg/ml.

[6] = biological target: T2, human DR3 (full length, on cells); experiment: cell-based or functional assay; remark: listed apart in the source
[7] = biological target: T2, human DR3 (full length, on cells); experiment: cell-based or functional assay; remark: listed apart in the source
[8] = biological target: T2, human DR3 (full length, on cells); experiment: cell-based or functional assay; remark: listed apart in the source

B1: 0163 (chimeric Fab of 45F187, human IgG4 constant domain, hinge Cys->Ser) (Fab, V domains shown)
VH: EVQLVESGGGLVQPGGSLRLSCATSGFTFTNYYMAWVRKPPGKTLEWLGFMRNIVNGYTTDYSGSVEGRFTISRDNSQSILYLQMNALRPEDSATYYCARDIGYRYDGGGYGLDYWGQGTSVTVSS
VL: DIQMTQSPASLSASVGETVTLTCRASGNIHNYLTWYQQKQGKSPQLLVYNVKTLADGVSSRFSGSGSGTQFSLKINSLQPEDFGSYYCQHFWTTPYTFGGGTKLEIRR
notes: IgG4-Ser, chimeric; also called 0150
binding result (DR3 (ECD)-Fc): binds

B6: 0173 (humanized IgG1 Fab of 0072; HC T28A S49A Y91S; LC Q3A T5A S60A M4L) (Fab, V domains shown)
VH: EVQLVESGGGLVQPGGSLRLSCAASGFTFSNYDMSWVRQAAGKGLEWVSAFSSDGYTFYPGAVKGRFTISRENAKNSLYLQMNSLRAGDTAVYYCARHADYANSPVMDYWGQGTLVTVSS
VL: DIALAQSPSSLSASVGDRVTITCRASKSVSTSGYSYMHWYQQKPGKAPKLLIYLASNLEAGVPSRFSGSGSGTDFTLTISSLQPEDFATYYCQHSRELPLTFGGGTKVEIK
IC100 of inhibition of IFN-γ secretion, TL1A-costimulated RA synovial fluid cells [6]: ~0.1 µg/mL
IFN-γ, TL1A-costimulated lymphocytes, Fab 0.003 µg/mL [7]: 160 ng/mL
IFN-γ, TL1A-costimulated lymphocytes, Fab 0.01 µg/mL [7]: 163 ng/mL
IFN-γ, TL1A-costimulated lymphocytes, Fab 0.03 µg/mL [7]: 95 ng/mL
IFN-γ, TL1A-costimulated lymphocytes, Fab 0.1 µg/mL [7]: 69 ng/mL
IFN-γ, TL1A-costimulated lymphocytes, Fab 0.3 µg/mL [7]: 62 ng/mL
IFN-γ, TL1A-costimulated lymphocytes, Fab 1.0 µg/mL [7]: 48 ng/mL
IFN-γ, TL1A-costimulated RA SF cells, Fab 0.003 µg/mL [8]: 1550 pg/mL
IFN-γ, TL1A-costimulated RA SF cells, Fab 0.01 µg/mL [8]: 1230 pg/mL
IFN-γ, TL1A-costimulated RA SF cells, Fab 0.03 µg/mL [8]: 1130 pg/mL
IFN-γ, TL1A-costimulated RA SF cells, Fab 0.1 µg/mL [8]: 1130 pg/mL
IFN-γ, TL1A-costimulated RA SF cells, Fab 0.3 µg/mL [8]: 992 pg/mL
IFN-γ, TL1A-costimulated RA SF cells, Fab 1 µg/mL [8]: 1060 pg/mL

B7: 0171 (humanized IgG1 Fab of 0072 without back mutations) (Fab, V domains shown)
VH: B6 VH with A41T, A62S, S104Y
VL: B6 VL with A3Q, L4M, A5T, A60S
IC100 of inhibition of IFN-γ secretion, TL1A-costimulated RA synovial fluid cells [6]: ~0.1 µg/mL
IFN-γ, TL1A-costimulated lymphocytes, Fab 0.003 µg/mL [7]: 140 ng/mL
IFN-γ, TL1A-costimulated lymphocytes, Fab 0.01 µg/mL [7]: 105 ng/mL
IFN-γ, TL1A-costimulated lymphocytes, Fab 0.03 µg/mL [7]: 69 ng/mL
IFN-γ, TL1A-costimulated lymphocytes, Fab 0.1 µg/mL [7]: 52 ng/mL
IFN-γ, TL1A-costimulated lymphocytes, Fab 0.3 µg/mL [7]: 62 ng/mL
IFN-γ, TL1A-costimulated lymphocytes, Fab 1.0 µg/mL [7]: 40 ng/mL
IFN-γ, TL1A-costimulated RA SF cells, Fab 0.003 µg/mL [8]: 1870 pg/mL
IFN-γ, TL1A-costimulated RA SF cells, Fab 0.01 µg/mL [8]: 1380 pg/mL
IFN-γ, TL1A-costimulated RA SF cells, Fab 0.03 µg/mL [8]: 1220 pg/mL
IFN-γ, TL1A-costimulated RA SF cells, Fab 0.1 µg/mL [8]: 1140 pg/mL
IFN-γ, TL1A-costimulated RA SF cells, Fab 0.3 µg/mL [8]: 1160 pg/mL
IFN-γ, TL1A-costimulated RA SF cells, Fab 1 µg/mL [8]: 1230 pg/mL

Second part, the binder after the results:

fold response, DR3 reporter, 40 ng/ml TL1A + 0.1 microg/ml [1]: 5.8 fold
fold response, DR3 reporter, 40 ng/ml TL1A + 1 microg/ml [1]: 2.7 fold
fold response, DR3 reporter, 40 ng/ml TL1A + 10 microg/ml [1]: 2.1 fold
fold response, DR3 reporter, 40 ng/ml TL1A + 100 microg/ml [1]: 2.1 fold
fold response, DR3 reporter, no TL1A, 0.1 microg/ml [1]: 1 fold
fold response, DR3 reporter, no TL1A, 1 microg/ml [1]: 1 fold
fold response, DR3 reporter, no TL1A, 10 microg/ml [1]: 1 fold
fold response, DR3 reporter, no TL1A, 100 microg/ml [1]: 1 fold
MFI [2]: 500 MFI
MFI [3]: 500 MFI
B2: 0087 (Fab from papain cleavage of mAb 0072) (Fab, V domains shown)
VH: EVKLVESGGGLVKPGGSLKLSCSASGFAFSNYDMSWVRQTPEKRLEWVAAFSSDGYTFYPDSLKGRFTISRDNARNTLYLQMSSLGSEDTALYCCARHADYANYPVMDYWGQGTSVTVSS
VL: DIVLAQSPASLLVSLGQRATISCRASKSVSTSGYSYMHWYQQKPGQPPKLLIYLASNLESGVPARFSGSGSGTDFTLNIHPVEEEDAATYYCQHSRELPLTFGAGTMLELKR
notes: murine IgG1 Fab by papain cleavage

fold response, DR3 reporter, 40 ng/ml TL1A + 0.1 microg/ml [4]: 24.2 fold
fold response, DR3 reporter, 40 ng/ml TL1A + 1 microg/ml [4]: 27.9 fold
fold response, DR3 reporter, 40 ng/ml TL1A + 10 microg/ml [4]: 25.5 fold
fold response, DR3 reporter, 40 ng/ml TL1A + 100 microg/ml [4]: 19 fold
fold response, DR3 reporter, no TL1A, 0.1 microg/ml [4]: 12.8 fold
fold response, DR3 reporter, no TL1A, 1 microg/ml [4]: 14.4 fold
fold response, DR3 reporter, no TL1A, 10 microg/ml [4]: 12.8 fold
fold response, DR3 reporter, no TL1A, 100 microg/ml [4]: 6.9 fold
MFI [2]: 1300 MFI
MFI [3]: 1300 MFI
Median Fluorescent Intensity [5]: 2840
Staining index (MFI Ab/MFI Isotype) [5]: 12.8
saturation concentration [5]: 3 µg/mL
B3: 0073 (murine mAb purified from hybridoma 28F26A3) (antibody, V domains shown)
VH: EVKVVESGGGLVKPGGSLKLSCAASGFVFSSYDMSWVRQIPEKRLEWVAAISSGDYYTYYPDSVKGRFTISRDDARNTLYLQMSSLRSEDTALYYCARHRGGNYPQYAMDYWGQGTSVTVSS
VL: DILLTQSPASFAVSLGQRATISCRASKSVSTSGYNYIHWYQQKPGQPPKLLIYLTSNLESGVPARFSGSGSGTDFTLNIHPVEEEDAATYYCQHSRELPFTFGSGTKLEIKR
notes: murine IgG2a, kappa; also called 0085

fold response, DR3 reporter, 40 ng/ml TL1A + 0.1 microg/ml [1]: 15.2 fold
fold response, DR3 reporter, 40 ng/ml TL1A + 1 microg/ml [1]: 6.3 fold
fold response, DR3 reporter, 40 ng/ml TL1A + 10 microg/ml [1]: 2.9 fold
fold response, DR3 reporter, 40 ng/ml TL1A + 100 microg/ml [1]: 2.8 fold
fold response, DR3 reporter, no TL1A, 0.1 microg/ml [1]: 1.1 fold
fold response, DR3 reporter, no TL1A, 1 microg/ml [1]: 1.1 fold
fold response, DR3 reporter, no TL1A, 10 microg/ml [1]: 1.1 fold
fold response, DR3 reporter, no TL1A, 100 microg/ml [1]: 1 fold
MFI [2]: 500 MFI
MFI [3]: 500 MFI
B4: 0088 (Fab from papain cleavage of mAb 0073) (Fab, V domains shown)
VH: B3 VH
VL: B3 VL
notes: murine IgG2a Fab by papain cleavage

IC100 of inhibition of IFN-γ secretion, TL1A-costimulated RA synovial fluid cells [6]: ~0.1 µg/mL
IFN-γ, TL1A-costimulated lymphocytes, Fab 0.003 µg/mL [7]: 131 ng/mL
IFN-γ, TL1A-costimulated lymphocytes, Fab 0.01 µg/mL [7]: 101 ng/mL
IFN-γ, TL1A-costimulated lymphocytes, Fab 0.03 µg/mL [7]: 108 ng/mL
IFN-γ, TL1A-costimulated lymphocytes, Fab 0.1 µg/mL [7]: 46 ng/mL
IFN-γ, TL1A-costimulated lymphocytes, Fab 0.3 µg/mL [7]: 51 ng/mL
IFN-γ, TL1A-costimulated lymphocytes, Fab 1.0 µg/mL [7]: 63 ng/mL
IFN-γ, TL1A-costimulated RA SF cells, Fab 0.003 µg/mL [8]: 1790 pg/mL
IFN-γ, TL1A-costimulated RA SF cells, Fab 0.01 µg/mL [8]: 1640 pg/mL
IFN-γ, TL1A-costimulated RA SF cells, Fab 0.03 µg/mL [8]: 1360 pg/mL
IFN-γ, TL1A-costimulated RA SF cells, Fab 0.1 µg/mL [8]: 1170 pg/mL
IFN-γ, TL1A-costimulated RA SF cells, Fab 0.3 µg/mL [8]: 1300 pg/mL
IFN-γ, TL1A-costimulated RA SF cells, Fab 1 µg/mL [8]: 1250 pg/mL
B5: 0170 (humanized IgG1 Fab of 0072; HC T28A S49A Y91; LC Q3A T5A S60A M4) (Fab, V domains shown)
VH: B6 VH with S104Y
VL: B6 VL with L4M
